experiment: yeast display, Sf9 membrane polyspecificity reagent, FACS + sequencing; frameworks hold sequencing errors
How it was run: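 In a synthetic yeast display library (Saccharomyces cerevisiae BJ5465), nanobody expression was induced with galactose for 36–48 hours. FACS gates were set low and high (top ~1%) using anti-HA fluorescence for expression and streptavidin fluorescence for binding of the Sf9 membrane reagent. Each polyreactivity label is drawn from the gate of origin.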

Sequence | polyreactivity (PSR sort gate)
QVQLEETGGGLVQAGGSLRLSCAASGFTFYQYAMGWYRKAPRKERELVAAISSSGTSTYYADSVKGRFTISRDNAKNTVYLQMNSLKPEDTAVYYCAARRYKLFYWGQGTQVTVSS | low polyreactivity
QVQLGESCGRLVQAGGSLRLSCADSGLTFSVYAMGWYRQSPGKETELVAAISYSGDSTYADSVKGRFTISRDNAKNTVYLQMNSLKPEDTAGYYCHAPLVHQGYRRWYDYWGQGTQVTVSS | low polyreactivity
QVQLGESGGGFVQAGGLLRLSCAASGRTFRVYAMGWYRQAPGKERELVAAITRGGSTYYADSVKGRFTFSRDNAQNTVYLQMNSLKPEDTAVYSCAADVLRTQPIGWYSHSPLEYWGQGTQVTVSS | high polyreactivity
QVQLGESGGGIVQAGGSLRLSCAASAFIIKYYAMGWYRPAPGKETELVAAIDGSSASTYYADSVKGRFTISRDNAKNTVYLQMNSLKPEDTAVYYCAVARLRRGGVQYGYWGQGTQVTVSS | high polyreactivity
QVQLGESGGGIVQAGGSLRLSCAASGRTFAFNAMGWYRQAPGKERELVAAIRWSGGSTYYADSVKGRFTISRDNAKNTVYLQMNSLKPEDTAVYYCATGKWGYFRYNYWGQGTQVTVSS | high polyreactivity
QVQLGESGGGLFQAGGSLRLSCAASGFTFVYYAMGWYRQAPGKERELVATISGNGGRTYYADSVKGRFTISRDNAKNTVYLQMNSLKPEDTAVYYCAALLYISSVGYDYWGQGTQVTVSS | low polyreactivity
QVQLGESGGGLFQAGGSLRLSCAASVRIFKGYNMGWYREAPRKEMELVAAISKSGGRTYYADSVKGRFTISRDNAKNTVYLQMNSQKPVDTAVYYCAARGGCKRPFGYQLQYDYWGQGTQVTVSS | high polyreactivity
QVQLGESGGGLGQAGGSLSLSCAATGSIFPYNPMGWYRQAPGKERELVATINSRGGRTYYADSVKGRFTISRDNAKNTVYLQMNSLKPEDTAVYYCARYYSSALRYGYWGQGTQVTVSS | low polyreactivity
QVQLGESGGGLLQAGGSHSLICADSGSTIRPNAMGWYTQAPGKERELVATIRGGGTSTYYADSVKGRFTISRDNAKNTVYLQLNSLKPEDTAVYYCAARGFYTGSYPGYYYWGQGTQVTVSS | high polyreactivity
QVQLGESGGGLLQAGGSLRLSCAASGRISSQYAMGLYRQAPWKERELFAAISTSGDRTYYADSVKGRFTISRDNAKNTVYLQMNSLKPEDTAVYYCAKEGPYTYGRDIYEYWGQGTQVTVSS | low polyreactivity
QVQLGESGGGLVEAGGSLRLSCAASGSTFNRYAMGWYRQAPGKERELVAAISFSGGRTYYADSVKGRFTISRDNAKNTVYLQMNSLKPEDTAVYYCAKVVYGYFTRAYTYNYWGHGTQVTVSS | high polyreactivity
QVQLGESGGGLVQAGGSLLLSCAASGSIFRHYTMGWDSQAPGKERELVAVISSGGNTNYADSVKGRFTISRDNAKNTVYFQMNSLKPEDTAVYYCAARSHRYYSRVNYWGQGTQVTVSS | high polyreactivity
QVQLGESGGGLVQAGGSLRLICAASGRIFYRNAMGWYRQAPGKERELVAGISNRGGSTYYADSVKGRFTISRDNAKNTVYLQMNSLKPEDTAVYYCATVPFSPPSAGPEYDYWGQGTQVTVSS | high polyreactivity
QVQLGESGGGLVQAGGSLRLSCAASGFIFRAYAMGWYRQAPGKERELVASISSRGGSTYYADSVKGRFTISRDNAKNTVYLQMNSLKPEDTAVYYCNAVYTYFPGWKYDYWGQGTQVTVSS | high polyreactivity
QVQLGESGGGLVQAGGSLRLSCAASGFTSVRYAKGWYRQAPGKERELVAAITWNGGSTYYADSVKGRFTISRDNAKKSVYLQMNSLKPEDTAVYYCAKDTPYRYSVAYDYWGQGTQVTVSS | high polyreactivity
QVQLGESGGGLVQAGGSLRLSCAASGIIFDTYAMGWYRQAPGKQRELVAVISTRGTSTYYADSVKGRFTISRDNAKNTVYLQMNSLKPEDTEVYYCNAFGRYSYPTFDYWGQGTQVTVSS | high polyreactivity
QVQLGESGGGLVQAGGSLRLSCAASGIIFYRYAMGWYRQAPGKERELVAAITWSGVSTSYADSVKGRFTISRDNAKNTVYLQMNSLKQEDTAVYYCNKDPGTLYGDMDSWGQGTQVTVSS | low polyreactivity
QVQLGESGGGLVQAGGSLRLSCAASGRIFGGNAMGRYRQAPGKERELVATISSDGSTNYADSVKGRFTISRDIAKNTVYLQMNSLKPEDTAVYYCAKGFYTLTPHGMDYWGQGTQVTVSS | low polyreactivity
QVQLGESGGGLVQAGGSLRLSCAASGRIFNVYAMGWYRQAPGKERELVAAISTGSPTYYADSVKGRFTISRDNAKNTVYLQMNSLKPEDTAVYYCATGYIHGDYWSFRHQYYYWGQGTQVTVSS | low polyreactivity
QVQLGESGGGLVQAGGSLRLSCAASGRIFSHNAMGWDRQAPGKERELVAVISRSGTGTYYADSVKGRFTISRDNAKNTVYLQMNSLKPEDTAVYYCNTYYEWWYYWGQGTQVTVSS | high polyreactivity
QVQLGESGGGLVQAGGSLRLSCAASGRIFSYYAMGWYRPAPGKERELVAAISYRGSSTNYADSVKGRFTISRDNAKNTVYFQMNSLKPEDTAVYYCATKFFRTAYEYWGQGTQVTVSS | high polyreactivity
QVQLGESGGGLVQAGGSLRLSCAASGRIFYKNTMGWYRQAPGKERELVAAISWRGGSTYYADSVKGRFTISRDNAKNTVYLQMNSLKPEDTAVYYCNADIWAYKYDYWGQGTQVTVSS | high polyreactivity

Sequence | polyreactivity (PSR sort gate)
QVQLGESGGGLVQAGGSLRLSCAASGRTCWPYARGWYRQAPGKEMELVAAISRGDRTHYADSVKGRFTISRDNAKKTVYLQMNSLIPEVTAVFYCAADSRYYYYVYKISGDYDSWGQGTHVTVSS | low polyreactivity
QVQLGESGGGLVQAGGSLRLSCAASGSIFGSYAMGWYRQAPGKERELVAAISKSGGNTYYADSVKGRFTISRDNAKNTDYLQMNSLKPEDTAVYYCAAYGFYRWRGYDYWGQGTQVTLSS | high polyreactivity
QVQLGESGGGLVQAGGSLRLSCAASGSIFGYYAMGWYRQAPGKERELVAAINYSGVSTYYADSVKGRFTISRDNAKNTVYLQMNSLKPEDTAVYYCAALRLYEPGPYGGPLRYGYWGQGTQVTVSS | high polyreactivity
QVQLGESGGGLVQAGGSLRLSCAASGSIFIGNAMGWYRQAPGKERELVAAITGRGGRTYYADSVKGRFTISRDNAKNTVYLQMNSLKTEDTAVYYCNAVARQFLYGYWGEGTQVTVSS | high polyreactivity
QVQLGESGGGLVQAGGSLRLSCAASGSIFKWYAMGWYRQAPGKERELVAAISASGGSTYYADSVKGRFTISRDNAKNSVYLQMNSLKPEDTAVYYCNTDHYYSSRHYDYWGQGTQVTVSS | low polyreactivity
QVQLGESGGGLVQAGGSLRLSCAASGSIFRRYARGWYRQAPGKERELVAAISSSGGRTYYADSVKGRFTISRDNAKNTVYLQMNSLKPEETAVYYCAKDTYGFAANRPAGDGYWGQGTQVTVSS | high polyreactivity
QVQLGESGGGLVQAGGSLRLSCAASGSTFERYSMGWYRQAPGKERELDAAINWSGGGTYYADSVKGRFTISRDNAKNTVYLQMNSLKPEDTAVYYCAADSGNVVFSLWWYEYYYWGQGTQVTVSS | low polyreactivity
QVQLGESGGGLVQAGGSLRLSCAASGSTFPRYVMGWYRQAPGKERELVAAISSSSGRTFYADSVKGRFTISRDNAKNTVYLQMNSLKPEDTAVYYCAARTSFNVHYWGQGTQVTVSS | high polyreactivity
QVQLGESGGGLVQAGGSLRLSCAASGSTFSCYAMGWYRQAPGKEREFVAAISWSGGSTYYADSVKGRFTISRDTAKNTVYLQMNSLKPEDTEVYYCAATRRGPYWWFGYDYWGQGTQVTVSS | high polyreactivity
QVQLGESGGGLVQAGGSLRLSCAASGSTFYPYAIGWYRQAPGKERELVARITRGDGSTYYADSVKGRFTISRDNAKNTVYVQMNSLKPEDTAVYYCIRVEYYTVWGYDYWGQGTQVTVSS | low polyreactivity
QVQLGESGGGLVQAGGSLRLSCAASGYIFRIYAMGGYRQAPGKERELVAAISRSGGSTSYADSVKGRFTISRDTAKNTVYLQMNSLKPEDTAVYYCATEIRPSRIAQYDYWGQGTQVTVSS | high polyreactivity
QVQLGESGGGLVQAGGSLRLSCSASMGWNSQAPGKERELVAITRTTRTYYADSVKGRFTISRDNAKNTVYLQMNSLKPEDTAVYYCAAPNGPSPYWYNYWGQGTQVTVSS | low polyreactivity
QVQLGESGGGLVQAGGSLRLTCAAYGRIYGGNAMGWYRQATGKEWELDAGISRRGGSTYYADSVKGRFTISRDNEKNTVYLQMNRLKPEDTAVYYCYAYYRYSVFAEKYDYWGQGTHVTVSS | high polyreactivity
QVQLGESGGGLVQAGGTLRVSCAPSGITFYGYAMGWYRQAPGKERELVAAINRGGTGTYYADSVKGRFTISRDNAKNTVYLQMNSLKPEDTAVYYCNKAGYPIADPTAGKRQFDNWGHGTQVTVSS | low polyreactivity
QVQLGESGGGLVQSGGSLRLSCAASGRTFCYYAMGWYRQAPGKERELVAAITNRGGNKYYADSVKGRFTISRDNAKNTVYLQMNSLKPEDTAVYYCAAYNRIYGYHTLYYWGQGTQVTVSS | high polyreactivity
QVQLGESGRGLVQEGGSLGLICAASGGIFKYNAMGWYRQAPGKERELVAAIRSTGSTYADSVKGRFTISRDNAKNTVYLQMNSLKPEDTAVYYCAAQYWRRKKYYYWGQGTQVTVSS | high polyreactivity
QVQLGESRRGLVQAGGSLRLSCAASGITFWYNATGWYRQSPGKERELDAAISRSAGSTYYADSVKGRFTISRDNAKNTVYLQMNSLKPEDTAVYYCAAKTPGRYYYWGQGTQVTVSS | high polyreactivity
QVQLHESGGGLVQAGGSLRLSCAASGTISYAGPMGWYRQAPGKEREFVAAIGVGSNTNYADSVKGRYTIIRDNAKNTVYLQMNSLKPEDTAVYYCAVGGYAPLGRPYWCQGTQVTVSS | low polyreactivity
QVQLHESGGGLVQAGGSLRMSCAASGTISVTYNKGWYRQAPGKEREFVAGNSTGATTNYADSVKGRFTISRDNAKNCVYLQMNSLKPDDTAVYYCAAHIYRQDHFYYWGQGTQVTVSS | low polyreactivity
QVQLHESGGGLVQSGGSLRLSCAASGTISYAGPMGWYPQAPGKEREFVAGIGVGSNTNYADSVKGRYTIIRDNAKNTVYLQMNSLKPVDTAVYYCAVGGYAPLGRPYCGQGTQVTVSS | low polyreactivity
QVQLHESGGGMVQAGGSLRLSCAASGTISYAGPMGWYRQAPGKEREFVAGIGVGSNTNYADSVKGRYTIIRDNAKNTVYLKMNSLKPEDTAVYYCGVGVYAQLGRPYWGQGTQVTVSS | low polyreactivity

Reference: the nanobody polyreactivity screen of Harvey et al. (2022)
